The target in the test is T1, recombinant human Ang2 (Biolegend) (human, UniProt O15123 19-496, limits assumed).
T1 construct: Bought reagent; also called angiopoietin-2
T1 sequence (looked up): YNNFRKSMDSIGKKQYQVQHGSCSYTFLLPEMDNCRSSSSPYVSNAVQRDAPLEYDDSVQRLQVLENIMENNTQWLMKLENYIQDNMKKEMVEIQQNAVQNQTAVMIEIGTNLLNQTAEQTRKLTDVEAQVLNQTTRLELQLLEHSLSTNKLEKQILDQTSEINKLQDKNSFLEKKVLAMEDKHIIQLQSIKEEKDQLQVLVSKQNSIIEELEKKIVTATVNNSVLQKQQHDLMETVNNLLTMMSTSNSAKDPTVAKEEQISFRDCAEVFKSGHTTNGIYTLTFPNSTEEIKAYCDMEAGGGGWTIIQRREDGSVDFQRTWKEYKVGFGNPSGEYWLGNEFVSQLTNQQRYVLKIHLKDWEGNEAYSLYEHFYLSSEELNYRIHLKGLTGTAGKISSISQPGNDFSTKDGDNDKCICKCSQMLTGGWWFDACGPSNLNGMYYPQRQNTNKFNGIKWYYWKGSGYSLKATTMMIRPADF
The test can be described thus: Tie2-Ang2 blocking ELISA.

Description: 96-well assay plates were coated with 0.5 ug/ml of recombinant human Ang2 (Biolegend) in PBS at 4° C. overnight, then blocked with 1% BSA/PBS for 1 hour at room temperature. […] After washing with Wash Buffer, Streptavidin-HRP was added to the plate at 1:200 and incubated for 30 minutes at room temperature.

B1: Bi-T0Z (Fc fusion)
chain: ESKYGPPCPPCPAPEFLGGPSVFLFPPKPKDTLMISRTPEVTCVVVDVSQEDPEVQFNWYVDGVEVHNAKTKPREEQFNSTYRVVSVLTVLHQDWLNGKEYKCKVSNKGLPSSIEKTISKAKGQPREPQVYTLPPSQEEMGGAQQEECEWDPWTCEHMGSGSATGGSGSTASSGSGSATHQEECEWDPWTCEHMGGTKNQVSLTCLVKGFYPSDIAVEWESNGQPENNYKTTPPVLDSDGSFFLYSRLTVDKSRWQEGNVFSCSVMHEALHNHYTQKSLSLSLGKGGGGSGGGGSGGGGSSDTGRPFVEMYSEIPEIIHMTEGRELVIPCRVTSPNITVTLKKFPLDTLIPDGKRIIWDSRKGFIISNATYKEIGLLTCEATVNGHLYKTNYLTHRQTNTIIDVVLSPSHGIELSVGEKLVLNCTARTELNVGIDFNWEYPSSKHQHKKLVNRDLKTQSGSEMKKFLSTLTIDGVTRSDQGLYTCAASSGLMTKKNSTFVRVHEK
Consider B1, for which the binding result is on record as “binds”.

B2: GS01-A (other)
heavy: QVQLVQSGAEVKKPGASVKVSCKASGYTFTSYYIHWVRQAPGQGLEWMGWIFPGSGNSKYNENFKGRVTLTADTSTSTVYMELSSLRSEDTAVYYCASETYDYGDYWGQGTLVTVSSASTKGPSVFPLAPCSRSTSESTAALGCLVKDYFPEPVTVSWNSGALTSGVHTFPAVLQSSGLYSLSSVVTVPSSSLGTKTYTCNVDHKPSNTKVDKRVESKYGPPCPPCPAPEFLGGPSVFLFPPKPKDTLMISRTPEVTCVVVDVSQEDPEVQFNWYVDGVEVHNAKTKPREEQFNSTYRVVSVLTVLHQDWLNGKEYKCKVSNKGLPSSIEKTISKAKGQPREPQVYTLPPSQEEMGGAQTNFMPMDDLEQRLYEQFILQQGGGGSGGGGSGGGGSGGGGSTNFMPMDDLEQRLYEQFILQQGLETKNQVSLTCLVKGFYPSDIAVEWESNGQPENNYKTTPPVLDSDGSFFLYSRLTVDKSRWQEGNVFSCSVMHEALHNHYTQKSLSLSLGKGGGGSGGGGSGGGGSGGGGSEVQLVESGGGLVQPGGSLRLSCAASGFTISDYWIHWVRQAPGKGLEWVAGITPAGGYTYYADSVKGRFTISADTSKNTAYLQMNSLRAEDTAVYYCARFVFFLPYAMDYWGQGTLVTVSSGGGGSGGGGSGGGGSGGGGSDIQMTQSPSSLSASVGDRVTITCRASQDVSTAVAWYQQKPGKAPKLLIYSASFLYSGVPSRFSGSGSGTDFTLTISSLQPEDFATYYCQQGYGNPFTFGQGTKVEIK
light: DIQMTQSPSFLSASVGDRVTITCKASQNVGTNVAWYQQKPGKAPKALIYSASYRYSGVPSRFSGSGSGTEFTLTISSLQPEDFATYYCQQYYSYPYTFGQGTKLEIKRTVAAPSVFIFPPSDEQLKSGTASVVCLLNNFYPREAKVQWKVDNALQSGNSQESVTEQDSKDSTYSLSSTLTLSKADYEKHKVYACEVTHQGLSSPVTKSFNRGEC
notes: Trispecific PD-1/VEGF/Ang2 antagonist on an IgG4 Fc; also called trispecific construct GS01-A
For the molecule B2, the binding result is reported as “binds”.

B3: GS01-T (other)
heavy: QVQLVQSGAEVKKPGASVKVSCKASGYTFTSYYIHWVRQAPGQGLEWMGWIFPGSGNSKYNENFKGRVTLTADTSTSTVYMELSSLRSEDTAVYYCASETYDYGDYWGQGTLVTVSSASTKGPSVFPLAPCSRSTSESTAALGCLVKDYFPEPVTVSWNSGALTSGVHTFPAVLQSSGLYSLSSVVTVPSSSLGTKTYTCNVDHKPSNTKVDKRVESKYGPPCPPCPAPEFLGGPSVFLFPPKPKDTLMISRTPEVTCVVVDVSQEDPEVQFNWYVDGVEVHNAKTKPREEQFNSTYRVVSVLTVLHQDWLNGKEYKCKVSNKGLPSSIEKTISKAKGQPREPQVYTLPPSQEEMGGAQQEECEWDPWTCEHMGSGSATGGSGSTASSGSGSATHQEECEWDPWTCEHMGGTKNQVSLTCLVKGFYPSDIAVEWESNGQPENNYKTTPPVLDSDGSFFLYSRLTVDKSRWQEGNVFSCSVMHEALHNHYTQKSLSLSLGKGGGGSGGGGSGGGGSGGGGSEVQLVESGGGLVQPGGSLRLSCAASGFTISDYWIHWVRQAPGKGLEWVAGITPAGGYTYYADSVKGRFTISADTSKNTAYLQMNSLRAEDTAVYYCARFVFFLPYAMDYWGQGTLVTVSSGGGGSGGGGSGGGGSGGGGSDIQMTQSPSSLSASVGDRVTITCRASQDVSTAVAWYQQKPGKAPKLLIYSASFLYSGVPSRFSGSGSGTDFTLTISSLQPEDFATYYCQQGYGNPFTFGQGTKVEIK
light: B2 light
notes: Trispecific PD-1/VEGF/Ang1/Ang2 antagonist on an IgG4 Fc; also called trispecific construct GS01-T
Turning to B3, the binding result was “binds”.

For the origin of these results see patent US20220389120A1 (GENSUN BIOPHARMA, published 2022).
